Consider 30 molecules from patent US20040072162A1, “Hiv peptides and nucleic acids encoding them for diagnosis and control of hiv infection” (priority 2000, published 2004).

The assay deals with HLA-A2 MHC-I (HLA-A*0204, affinity purified from the EBV transformed cell line RML) (human).
Take GLADQLIHM (modifications not checked) [8.11natM]: the Kd – broadly, the free concentration of one partner at which half of the binding sites on the other are occupied at equilibrium, for simple one-to-one binding – was 135 nM. With YLAWVPAHK (modifications not checked) [8.42nat] the figure was 200 nM; with RTLNAWVKV (modifications not checked) [8.54nat], 170 nM. With NIWATHACV (modifications not checked) [8.75natV] the figure was 57 nM. YIKIFIMIV (modifications not checked) [8.93nat] displayed a Kd of 24 nM. Regarding LQLPPIERL (modifications not checked) [8.14nat], the Kd was 7.3 nM. This Kd is about 3.3-fold lower than that of the molecule before. In the case of ILVESPAVL (modifications not checked) [8.16nat] it was 13 nM; in that of TGNPPIPV (modifications not checked) [8.123natG], 700 nM. In the case of SGGDPEIV (modifications not checked) [8.130nat] it was 950 nM; in that of WCFKLVPV (modifications not checked) [8.121nat], 200 nM. In the case of FLWMGYELH (modifications not checked) [8.21nat] it was 445 nM; in that of ALAALITPK (modifications not checked) [8.12nat], 62 nM; in that of ATLEEMMTA (modifications not checked) [8.65nat], 77 nM.

WLFKLVPV (modifications not checked) [8.121mod] yielded a Kd of 183 nM.

In turn, LCFGWCFKL (modifications not checked) [8.45natC] registered a Kd of 580 nM. With AIEAQQHLL (modifications not checked) [8.88nat] the figure was 850 nM; with VVAAIIAIV (modifications not checked) [8.1nat], 260 nM; with NTVATLYCV (modifications not checked) [8.49nat], 170 nM. With TLQEQIGWM (modifications not checked) [8.56nat] the figure was 245 nM; with ALGIIQAQ (modifications not checked) [8.116nat], 97 nM; with GMGSPQILV (modifications not checked) [8.15natM (4.40)], 120 nM.

The molecule RLAFHHMAR (modifications not checked) [8.47nat] registered a Kd of 670 nM. This Kd lies about 5.6-fold higher than the previous one.

Take ALGPAATLE (modifications not checked) [8.64nat]: the Kd came out at 830 nM. In the case of LKTAVQMAV (modifications not checked) [8.33nat] it was 1330 nM; in that of FLGAAGST (modifications not checked) [8.135nat], 870 nM; in that of ALVEMGHHA (modifications not checked) [8.3nat], 160 nM. With KTKPPLPSV (modifications not checked) [8.10natT] the figure was 39 nM; with LNFPISPI (modifications not checked) [8.115nat], 29 nM. With SLVKHHMYI (modifications not checked) [4.14 variant] the figure was 123 nM; with SLVKHHMYV (modifications not checked) [4.14], 21 nM.
